Positions count from the first letter of the chain named. Values joined by “and” are separate entries in the source; they are usually repeats but may differ in a detail not shown here. Equal values may be shown once. Blank lines part the entries; values can stand above or below the molecule they belong to.
Tests used:
[1] = system: human prostate cancer C4-2 cells (xenograft); assay: C4-2/human PBMC co-implant xenograft in NSG mice, immediate dosing; format: in vivo, mouse; details: C4-2/NSG
Source text: To assess the in vivo efficacy of the anti-STEAP2/anti-CD3 bispecifics in human tumor xenograft studies, NOD scid gamma (NSG) mice (Jackson Laboratories, Bar Harbor, Me.) were co-implanted with human peripheral blood mononuclear cells (PBMCs; ReachBio LLC., Seattle, Wash.) along with human prostate cancer C4-2 cells (MD Anderson Cancer Center, Houston Tex.) which endogenously express STEAP2.
Briefly, 5.0×10^6 C4-2 cells were co-implanted subcutaneously (s.c.) with 1.25×10^6 human PBMCs in a 50:50 mix of matrigel matrix (BD Biosciences, San Jose, Calif.) into the right flank of male NSG mice. Mice were treated intraperitoneally (i.p.) on the day of implantation (immediate treatment model) with anti-STEAP2/anti-CD3 bispecifics BSSTEAP2/CD3-001, BSSTEAP2/CD3-002 or BSSTEAP2/CD3-003, or an isotype control, at a dose of 0.1 or 0.01 mg/kg (N=5 mice/group).
Tumor size was measured 2×/week using calipers and tumor volume calculated as Volume=(length×width^2)/2. Data is shown as tumor size (mm^3) at study endpoint, 46 d post-tumor implantation (Table 7).

[2] = system: monkey PBMCs; assay: T cell proliferation assay, cynomolgus PBMC; format: cell-based; details: for Cynomolgus PBMC proliferation activity (in words): across donors tested
Experimental: Thawed human or freshly isolated monkey PBMCs (50,000 cells/well) were incubated with 3-fold (human, concentration range: 5E-10M to 2.82E-15M; cynomolgus, concentration range: 1E-09M to 4.57E-13M) serial dilutions of STEAP2×CD3 bispecifics or isotype control in complete medium (RPMI supplemented with 10% FBS, 100 U/mL penicillin, 100 μg/mL streptomycin, 292 μg/mL L-glutamine) and a fixed concentration (human: 200 ng/mL, cyno: 500 ng/mL) of a commercial anti-CD28 antibody (Biolegend, Catalog #302914) in white flat bottom 96-well plates for 72 hours at 37° C. Isolated monkey PBMCs were from two donors (identified as mk8781M or mk9381M). Following incubation, CellTiter Glo® (Promega, Cat #7573) was added and luminescence, as readout for cell viability, was measured using a VICTOR X5 multi-label plate reader. Cell titer was calculated by dividing the luminescence of stimulated cells by the baseline luminescence of unstimulated cells.

[3] = system: cynomolgus T cells; assay: FACS binding titration of STEAP2xCD3 bispecifics on cynomolgus T cells; details: 66.6 nM to 0.001 nM, 30 minutes at 4° C.
Experimental: FACS Binding Titration on Jurkat Cells, PC3_STEAP2/1 Cells and cynomolgus T Cells: Flow cytometric analysis was utilized to determine binding of STEAP2×CD3 bispecific antibodies to Jurkat, PC3_STEAP2/1 chimeric and cynomolgus T cells, followed by detection with a phycoerythrin (PE)-labeled anti-human IgG antibody. Briefly, 2×10^5 cells/well were incubated for 30 minutes at 4° C. with a serial dilution of STEAP2×CD3 bispecific antibodies or control antibody (a human IgG1 antibody that binds a feline antigen with no cross-reactivity to STEAP2 or human or cynomolgus CD3) ranging from 66.6 nM to 0.001 nM. After incubation, the cells were washed twice with cold PBS containing 1% filtered FBS and a PE-conjugated anti-human secondary antibody was added to the cells and incubated for an additional 30 minutes. Wells containing no antibody or secondary antibody only were used as a control. After incubation, cells were washed, re-suspended in 200 μL cold PBS containing 1% filtered FBS and analyzed by flow cytometry on a BD FACS Canto II.

[4] = system: FADU cells (STEAP2 negative); assay: FACS binding to STEAP2-negative FADU cells; details: human-Fc antibodies
Experimental: (§1) The ability of anti-STEAP2 antibodies to selectively bind to human six-transmembrane epithelial antigen of prostate 2 (STEAP2) endogenously expressing cell lines was determined via FACS analysis.
(§2) Briefly, 1×10^5 cells were incubated with 10 μg/ml of anti STEAP2 antibodies, or isotype control antibodies for 30 min on ice in antibody dilution buffer. Following one wash with antibody dilution buffer, cells were incubated with 10 μg/ml of PE conjugated anti-human or anti mouse Fc secondary antibodies for 30 min on ice. Following one additional wash, samples were incubated with Cytofix (1% formaldehyde) for 20 minutes. After one final wash, samples were filtered through a Pall 96 well filtration block, run on a Hypercyt® cytometer and analyzed in ForeCyt™ (IntelliCyt, Albuquerque, N. Mex.). Mean fluorescence intensities (MFI) were expressed as fold change above unstained levels (background). The average fold above background at antibody concentrations of 100-300 nM were determined. For cell binding EC50 determinations, mAb concentrations ranged from 300 nM to […] and EC50 values were determined from a four-parameter logistic equation over a 12-point response curve (GraphPad Prism).

[5] = system: C4-2 cells (high-STEAP2 expressing); assay: Internalization and total binding on C4-2 cells (imaging, qualitative score); format: cell-based, human; design: key: − (no internalization or binding); +(weak internalization or binding); ++(moderate internalization or binding); +++(robust internalization or binding); details: 10 μg/ml antibody
Experimental: Briefly, 20,000 C4-2 cells were seeded in PDL coated 96 well plates. The next day, cells were incubated with anti-human STEAP2 antibodies (10 μg/ml) for 30 min on ice followed by two PBS washes. Cells were then incubated with alexa488-conjugated anti-hFc Fab secondary antibody for 30 minutes on ice, followed by two additional PBS washes. Antibodies were allowed to internalize for 1 h at 37° C. in internalization buffer (PBS+2% FBS) or were maintained at 4° C. Cells were fixed in 4% formaldehyde, nuclei were stained with DRAQ5 (Cell signaling), and images were acquired on the ImageXpress micro XL (Molecular Devices).
A qualitative visual assessment of the total binding intensity and the intensity of antibodies that had internalized into vesicles was performed and scored according to the following criteria: − (no internalization or binding), +(weak internalization or binding), ++(moderate internalization or binding) and +++(robust internalization or binding).

[6] = system: Raji cells (STEAP2 negative); assay: FACS binding to STEAP2-negative Raji cells; details: human-Fc antibodies
Experimental: as §1, §2

B3: BSSTEAP2/CD3-005: STEAP2×CD3 bispecific: anti-STEAP2 H1H11162 (SEQ 250), anti-CD3 H1H7208P (SEQ 1490), common LCVR SEQ 258 (antibody, V domains shown)
VH 1: QVQLQQSGPGLVKPSQTLSLTCAISGDSVSSNRAAWNWIRQSPSRGLQWLGRTYYRSKWYNDYAVSLRSRITINPVTSKNQVALHMNSVTPEDTAVYYCARAGIVVVPGPETFYYYDHGLDVWGQGTTVTVSS
VH 2: QVQLVESGGGLVHPGRSLRLSCAASGFKFDDYTMHWVRQAPGKGLEWVSDISWNSGSKGYADSVKGRFTISRDNAKDSLYLQMDSLRAADTAFYYCAKDKSGYGHFYYYAMDVWGQGTTVTVSS
VL: DIQMTQSPSSLSASVGDRVTITCRASQSIRSYLNWYQQKPGKAPELLIHAASSLQSGVPSRFSGSGSGTDFTLTISSLQPEDFASYYCQQSYSAPPITFGQGTRLEIK
Cynomolgus PBMC proliferation activity (in words) [2]: no activity
Cynomolgus T cells EC50 [M] [3]: No Binding

B5: H1H11164N: human-Fc anti-STEAP2 antibody, HCVR/LCVR SEQ ID NOs 282/290 (antibody, V domains shown)
VH: B3 VH 1 with A23V, S31T, R33S, Q48E, L67V, M86L, F113Y, D117Y
VL: B3 VL with S28N, E45K, A50V, S85T, A94T, Q101H
modifications: human Fc
FADU Avg F.A.B (Fold Above Background) [4]: 3 fold
Internalization (37° C., 1 h) Qualitative Score [5]: +++
Total Binding (4° C.) Qualitative Score [5]: +++

B6: H1H7810N: human-Fc anti-STEAP2 antibody; variable regions presumably as H2M7810N (antibody, V domains shown)
VH: QVQLVESGGGVVQPGRSLRLSCAVSGFTSSTYGMNWVRQAPGKGLEWVAVISYDGSNKYYADSVKGRFTISRDNSKNTLYLQMNSLRPEDTAVYYCARGRYFDLWGRGTLVTVSS
VL: DIQMTQSPSTLSASVGDRVTITCRASQIISSWLAWYQQKPGKAPKLLIYKASSLASGVPSRFSGSGSGTEFTLTISSLQPDDFATYYCQQYKSYSYTFGQGTKLEIK
Raji Avg F.A.B (Fold Above Background) [6]: 2 fold

B7: H1H7811N: human-Fc anti-STEAP2 antibody; variable regions presumably as H2M7811N (antibody, V domains shown)
VH: B6 VH with Y53F, N84S
VL: B6 VL with I2T, K103N
FADU Avg F.A.B (Fold Above Background) [4]: 3 fold
Raji Avg F.A.B (Fold Above Background) [6]: 4 fold

Further lines, with some results ahead:

EC50 [3]: 7.27 nM
B1: BSSTEAP2/CD3-001: STEAP2×CD3 bispecific: anti-STEAP2 HCVR H2M11162N (SEQ 250), anti-CD3 HCVR CD3-VH-G (SEQ 1730), common LCVR SEQ 258 (antibody, V domains shown)
VH 1: B3 VH 1
VH 2: EVQLVESGGGLVQPGRSLRLSCAASGFTFDDYSMHWVRQAPGKGLEWVSGISWNSGSKGYADSVKGRFTISRDNAKNSLYLQMNSLRAEDTALYYCAKYGSGYGKFYHYGLDVWGQGTTVTVSS
VL: B3 VL
Tumor Size (mm^3) 46 d post-tumor implantation (mean ± SD) ([1]; 0.01 mg/kg i.p. on day of implantation): 23.0 ± 220 mm^3
Tumor Size (mm^3) 46 d post-tumor implantation (mean ± SD) ([1]; 0.1 mg/kg i.p. on day of implantation): 18.0 ± 14.0 mm^3
Tumor growth compared to isotype control at study endpoint (in words) ([1]; 0.1 or 0.01 mg/kg): significantly suppressed tumor growth
Cynomolgus PBMC proliferation activity (in words) [2]: induced robust cynomolgus PBMC proliferation in all donors tested
EC50 ([2]; donor mk9381M, anti-CD28 500 ng/mL, 72 hours, read-out: Cyno PBMC Proliferation [M] (donor)): 4.6e-12 M and 4.59e-12 M

EC50 [3]: 17.3 nM
B2: BSSTEAP2/CD3-007: STEAP2×CD3 bispecific: anti-STEAP2 H1H11162 (SEQ 250), anti-CD3 H1H7195P (SEQ 1450), common LCVR SEQ 258 (antibody, V domains shown)
VH 1: B3 VH 1
VH 2: EVQLVESGGGLVQPGRSLRLSCAASGFTFADYTMHWVRQAPGKGLEWVSDISWNSGSIAYADSVKGRFTISRDNAKNSLYLQMNSLRTEDTAFYYCAKDSRGYGHYKYLGLDVWGQGTTVTVSS
VL: B3 VL
Cynomolgus PBMC proliferation activity (in words) [2]: donor dependent

Cynomolgus T cells EC50 [M] [3]: No Binding
B4: BSSTEAP2/CD3-009: STEAP2×CD3 bispecific: anti-STEAP2 H1H11164 (SEQ 282), anti-CD3 H1H7208P (SEQ 1490), common LCVR SEQ 290 (antibody, V domains shown)
VH 1: B3 VH 1 with A23V, S31T, R33S, Q48E, L67V, M86L, F113Y, D117Y
VH 2: B3 VH 2
VL: B3 VL with S28N, E45K, A50V, S85T, A94T, Q101H
Cynomolgus PBMC proliferation activity (in words) [2]: no activity

Source: patent publication US10772972B2, “Anti-STEAP2 antibody drug conjugates, and compositions and uses thereof” (Regeneron Pharmaceuticals, Inc., priority 2016, dated 2020)
